Substitutions are numbered along the chain they refer to. Numbers in names are those of the source.

This series concerns the molecule itself. The experiment in a line: SEC-MALS.

B1: mouse pyridoxal kinase (mPDXK), wild type (enzyme, UniProt Q8K183 1-312, looked up)
chain: MEGECRVLSIQSHVVRGYVGNRAAMFPLQVLGFEVDAVNSVQFSNHTGYAHWKGQVLKSQELHELYEGLKVNDVNKYDYVLTGYTRDKSFLAMVVDIVRELKQQNSRLVYVCDPVMGDKWNGEGSMYVPQDLLPVYRDKVVPVADIITPNQFEAELLSGRKIHSQEEAFEVMDMLHCMGPDTVVITSSDLPSSQGSDYLIALGSQRMRKPDGSTVTQRIRMEMRKVEAVFVGTGDLFAAMLLAWTHKHPDNLKVACEKTVSAMQHVLQRTIRCAKAEAGEGQKPSPAQLELRMVQSKRDIEDPEIVVQATVL
As for B1, the “stoichiometry N” value amounted to 2.

B2: mouse pyridoxal kinase (mPDXK) V41W/F43R double mutant (enzyme, UniProt Q8K183 1-312, looked up)
chain: B1 chain with V41W, F43R
For the protein B2, the “stoichiometry N” value was found to be 2.

B3: mouse pyridoxal kinase (mPDXK) V41W (enzyme, UniProt Q8K183 1-312, looked up)
chain: B1 chain with V41W
For the protein B3, the “stoichiometry N” value amounted to 2.

B4: mouse pyridoxal kinase (mPDXK) F43R (enzyme, UniProt Q8K183 1-312, looked up)
chain: B1 chain with F43R
As to B4, the “stoichiometry N” value is 2.

B5: mouse pyridoxal kinase (mPDXK) R86W (enzyme, UniProt Q8K183 1-312, looked up)
chain: B1 chain with R86W
On to B5, for which the “stoichiometry N” value was determined as 2.
